Reference: patent US20050036993A1, “Immune activation by double-stranded polynucleotides” (priority 1998, published 2005)

Test system: Stat 1 (Tyr 701), Stat 3 (Tyr 705)
Test: Western blot of phosphorylated Stat 1, Stat 3 and total Stat 1 in FRTL-5 cells
Format: cell-based, rat
Experimental: SDS-polyacrylamide gel electrophoresis and Western blotting—Transfected FRTL-5 cells or FRTL-5 cells treated with KIFN (100 U/ml protein) which had been grown in 100 mm dishes (Nalge Nunc International), were placed on ice before harvesting, washed with ice-cold Dulbecco's PBS (DPBS), released by gentle scraping with a rubber policeman, and collected by low-speed centrifugation at 833×g for 10 min in a Sorvall table-top centrifuge (rotor H-1000, Dupont Company, Wilmington Del.). After a second washing in DPBS, cells were resuspended in cold lysis buffer [50 mM HEPES pH 7.0,2 mM MgCl2; 250 mM NaCl; 0.1 mM EDTA; 0.1 mM EGTA; 1 mM DTT; 2 mM Na3VO4; 10 mM Na4P2O7; 10 mM NaF; 0.1% NP-40; 0.5 mM p-amidinophenyl methanesulfonyl fluoride hydrochloride (p-APMSF) plus a protease inhibitor cocktail ([…]; 2.5 mg/ml of antipain; 2.5 mg/ml of chymostatin; 0.25 mg/ml leupeptin; 0.25 mg/ml antipain]. The cells were allowed to lyse on ice for 60 min, after which they were vortexed vigorously and centrifuged at 4° C. and at 12,000 rpm in a microcentrifuge for 10 min. The supernatant was collected and frozen in aliquots at −70° C. […] The membrane was again washed and protein detected by incubation for 1 min with ECL detection reagent (Amersham, Arlington Heights, Ill.) followed by exposure to X-ray film. […]

B1: KIFN: K-interferon (gamma interferon, character lost), rat recombinant, 100 U/ml (protein, UniProt P01581 23-156, looked up)
Interferon gamma: QGTLIESLESLKNYFNSSSMDAMEGKSLLLDIWRNWQKDGNTKILESQIISFYLRLFEVLKDNQAISNNISVIESHLITNFFSNSKAKKDAFMSIAKFEVNNPQIQHKAVNELIRVIHQLSPESSLRKRKRSRC
- phosphorylation of STAT 1 and STAT 3 (FRTL-5 cells, dsDNA within 6 hours of transfection): significantly lower and more delayed in time
- total STAT 1 protein (readily measurable at 12 hours): greater and more advanced in time
